# What was measured:
# [1] = target: prefusion-stabilized S protein of SARS-CoV-2 Delta (B.1.617.2) variant (S trimer) (SARS-CoV-2); experiment: BLI
# [2] = target: prefusion-stabilized S protein of SARS-CoV-2 G614 variant (S trimer) (SARS-CoV-2); experiment: BLI
# Sequence of human ACE2 peptidase domain (PD) (Q9BYF1 18-615): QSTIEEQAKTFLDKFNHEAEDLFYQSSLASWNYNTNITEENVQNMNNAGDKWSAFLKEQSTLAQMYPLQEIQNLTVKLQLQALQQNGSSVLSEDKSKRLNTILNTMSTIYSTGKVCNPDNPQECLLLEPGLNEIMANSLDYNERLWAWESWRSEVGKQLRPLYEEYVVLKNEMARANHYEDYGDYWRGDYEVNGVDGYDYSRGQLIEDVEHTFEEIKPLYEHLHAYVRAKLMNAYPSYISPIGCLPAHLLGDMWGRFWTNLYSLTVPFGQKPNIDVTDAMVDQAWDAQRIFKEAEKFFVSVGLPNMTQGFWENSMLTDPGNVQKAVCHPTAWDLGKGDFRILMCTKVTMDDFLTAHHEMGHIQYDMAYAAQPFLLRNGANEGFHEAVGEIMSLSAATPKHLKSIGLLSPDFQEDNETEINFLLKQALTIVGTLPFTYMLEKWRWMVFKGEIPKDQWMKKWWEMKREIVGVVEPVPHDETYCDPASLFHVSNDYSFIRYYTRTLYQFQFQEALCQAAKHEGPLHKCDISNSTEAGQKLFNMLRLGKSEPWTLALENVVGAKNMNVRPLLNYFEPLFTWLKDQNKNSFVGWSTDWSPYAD
substance,measurement,setting,value
human ACE2 peptidase domain (PD) (from UniProt Q9BYF1 18-615) (domain or fragment),Kd,[1],88 nM
same,Kd,[2],237 nM

# From doi:10.1101/2022.01.10.475532
